The record followed here is paper PMC8538103.

The target of test [1] is neuraminidase from A/BrevigMission/1/1918 (H1N1), residues 83 to 468 of the ectodomain, construct pTT5-NA (+SS −TET) (influenza A virus A/BrevigMission/1/1918 (H1N1)). The test is described as follows: crystal structure.
Test [2] has the same target. The experiment in a line: dynamic light scattering; in solution; data not shown.

For orientation: stoichiometry N means a count of units in the complex or per binding partner. “neuraminidase from A/BrevigMission/1/1918 (H1N1), residues 83 to 468 of the ectodomain, construct pTT5-NA (+SS −TET) (domain or fragment)”: the stoichiometry N in test [1] and in test [2] was 4 throughout.
